Biological target: T1, human IL12RB1 Fc fusion protein (human, UniProt P42701 24-545)
T1 construct: Purchased from R & D systems; Coated on the ELISA plate; also called human IL-12RB1 receptor subunit; human IL12 receptor; not shown: Fc part of the purchased fusion protein (R & D systems)
Test: ELISA, receptor-Fc coated on plate, titration of cytokine, detection with anti-human p40 monoclonal antibodies
Procedure: To test whether cynomolgus IL-23 binds to the human IL23 receptor (“IL23R”), and whether cynomolgus IL-12 binds to the human IL12 receptor (“IL12RB1”), human IL23R Fc and human IL12RB1 Fc fusion proteins were purchased (R & D systems) for an ELISA assay. To capture IL23R Fc fusion protein, 500 ng of IL23R—Fc protein in 100 μl of PBS (pH 7.4) was put onto a 96-well Maxisorb plate (NUNC, Rochester, N.Y.) and incubated overnight at 4° C. Likewise, to capture IL12RB1 Fc fusion protein, 500 ng of IL12RB1 Fe protein in 100 μl of PBS (pH 7.4) was put onto a 96-well Maxisorb plate (NUNC, Rochester, N.Y.) and incubated overnight at 4° C. For each, the capture solution was thrown away after overnight incubation and the plate was washed with 200 μl per well of TBST (25 mM Tris-HCl pH 7.5, 150 mM NaCl and 0.01% Tween 20) three times. The plate was then blocked with 200 μl per well of TBST containing 5% nonfat dry milk for 30 minutes at room temperature. After blocking, the plate was washed 3 times with 200 μl per well of TBST at room temperature and a titration of cynoIL23 or cynoIL12 in PBS was added to the plate and incubated at room temperature for 1 hour. […] A 100 μl solution containing 2 NH₂SO₄ was added to stop the reaction and the plate was read on a 96 well SpectroMax plate reader at 450 nm.

binding result: binds
B1: cynomolgus IL-12 (single chain: cyno p40 - 2 bovine elastin motifs - cyno p35) (ligand)
chain: IWELKKDVYVVELDWYPDAPGEMVVLTCDTPEEDGITWTLDQSGEVLGSGKTLTIQVKEFGDAGQYTCHKGGEALSHSLLLLHKKEDGIWSTDVLKDQKEPKNKTFLRCEAKNYSGRFTCWWLTTISTDLTFSVKSSRGSSNPQGVTCGAVTLSAERVRGDNKEYEYSVECQEDSACPAAEERLPIEVMVDAIHKLKYENYTSSFFIRDIIKPDPPKNLQLKPLKNSRQVEVSWEYPDTWSTPHSYFSLTFCIQVQGKSKREKKDRIFTDKTSATVICRKNASFSVQAQDRYYSSSWSEWASVPCSVPGVGVPGVGRNLSVATPGPEMFPCLHHSQNLLKAASNTLQKARQILEFYPCTSEEIDHEDITKDKTSTVEACLPLELIKNESCLNSRETSFITNGSCLASRKTSFMMALCLRSIYEDLKMYQVEFKTMNAKLLRDPKRQIFLDQNILGVIDELMQALNFNSETVPQKSSLEEPDFYKTKIKLCILLHAFRIRAVTIDRVMSYLNAS
notes: expressed in 293F cells and purified from the supernatant, about 95% pure; Any vector-derived residues at the junctions or a signal peptide are not described; also called cynoIL12; cyno IL-12
